Numbering of substitutions follows the chain as printed.
B1: Ulk3-HA^WT (in HEK293T) (enzyme, mouse, UniProt Q3U3Q1 1-472, looked up)
chain: MAGPSWGLPRLDGFILTERLGSGTYATVYKAYAKKDTREVVAIKCVAKKSLNKASVENLLTEIEILKGIRHPHIVQLKDFQWDNDNIYLIMEFCAGGDLSRFIHTRRILPEKVARVFMQQLASALQFLHERNISHLDLKPQNILLSSLEKPHLKLADFGFAQHMSPWDEKHVLRGSPLYMAPEMVCRRQYDARVDLWSVGVILYEALFGQPPFASRSFSELEEKIRSNRVIELPLRPQLSLDCRDLLQRLLERDPARRISFKDFFAHPWVDLEHMPSGESLAQARALVVEAVKKDQEGDAAAALSLYCKALDFFVPALHYEVDAQRKEAIKAKVGQYVSRAEELKAIVSSSNQALLRQGTTVQELLREMARDKPRLLAALEVASAALAKEEEAGKEQDALDLYQHSLGELLVLLAAEAPGRRRELLHTEVQNLMARAEYLKEQIKIRESHWEAESLDKEGLSESVRSSCTLQ
modifications: SUMO-conjugated form enriched in the condensates (P100)
notes: source: HEK293T, transfected, overexpressed; in lysate fractions (S100, P100); purified from HEK293T for in vitro maturation; not shown: 3x HA, C-terminal, kept
B2: Flag-Fu^EE (enzyme)
chain: MNRYAVSSLVGQGSFGCVYKATRKDDSKVVAIKVISKRGRATKELKNLRRECDIQARLKHPHVIEMIESFESKTDLFVVTEFALMDLHRYLSYNGAMGEEPARRVTGHLVSALYYLHSNRILHRDLKPQNVLLDKNMHAKLCDFGLARNMELGEHVLTSIKGTPLYMAPELLAEQPYDHHADMWSLGCIAYESMAGQPPFCASSILHLVKMIKHEDVKWPSTLTSECRSFLQGLLEKDPGLRISWTQLLCHPFVEGRIFIAETQAEAAKESPFTNPEAKVKSSKQSDPEVGDLDEALAALDFGESRQENLTTSRDSINAIAPSDVEHLETDVEDNMQRVVVPFADLSYRDLSGVRAMPMVHQPVINSHTCFVSGNSNMILNHMNDNFDFQASLRGGGVAAKPIVAPTVRQSRSKDLEKRKLSQNLDNFSVRLGHSVDHEAQRKATEIATQEKHNQENKPPAEAISYANSQPPQQQPQQLKHSMHSTNEEKLSSDNTPPCLLPGWDSCDESQSPPIENDEWLAFLNRSVQELLDGELDSLKQHNLVSIIVAPLRNSKAIPRVLKSVAQLLSLPFVLVDPVLIVDLELIRNVYVDVKLVPNLMYACKLLLSHKQLSDSAASAPLTTGSLSRTLRSIPELTVEELETACSLYELVCHLVHLQQQFLTQFCDAVAILAASDLFLNFLTHDFRQSDSDAASVRLAGCMLALMGCVLRELPENAELVERIVFNPRLNFVSLLQSRHHLLRQRSCQLLRLLARFSLRGVQRIWNGELRFALQQLSEHHSYPALRGEAAQTLDEISHFTFFVT
modifications: SUMOylated in Sf9 cells (condensate fraction)
B3: fused (Fu) (enzyme, Drosophila (endogenous in Cl8), UniProt P23647 1-805, looked up)
chain: B2 chain with E151T, E154T
notes: Fu Ser/Thr kinase, Drosophila, endogenous in Cl8 cells; After Hh it is phosphorylated (T158/S159, S482) and SUMO-conjugated; the SDS-resistant dimer is called mature Fu; also called endogenous Fu; mature Fu; source: endogenous, Cl8 cells (fractions, lysates)

Columns and labels:
[1] = target: the molecule itself; assay: co-sedimentation; sedimentation assay of HEK293T cells overexpressing Ulk3-HA constructs; S100 soluble, P100 condensates
[2] = target: the molecule itself; assay: SDS-PAGE and immunoblot (SDS-resistant dimer); SDS-resistant ~250 Kd Fu dimer ('mature Fu') in extracts of cells (Cl8 with Hh-conditioned medium, S2, Sf9, wing discs); tells nothing of SDS-labile association

Protein	binding result [1]	stoichiometry N [2]
B1	binds	–
B2	–	2
B3	–	2

— publication PMC11721587, “Morphogen-induced kinase condensates transduce Hh signal by allosterically activating Gli” (Science Advances, 2025)
